Results as given in US20230049152A1.

Target: human CCR8 (human) (UniProt P51685)
Assay: cell-based or functional assay

- ADCC reporter EC50, mFcgRIV Jurkat cells with CHO/hCCR8 (FIG. 11D): 0.26 nM
- CCL1 blocking potency IC50, Ca2+ influx: 17.6 nM
- induction fold at about 1 nM antibody, mFcgRIV Jurkat NFAT-luciferase reporter: > 12 fold
- induction fold plateau at about 40 nM antibody, mFcgRIV Jurkat NFAT-luciferase reporter: 13 fold
B1: murine anti-human CCR8 mAb 433H (BD Biosciences) (antibody, from another filing, mouse IgG2a, V domains shown)
VH: EVQLVETGGGLVQPKGSLRLSCAASGFPFNTFAMNWVRQAPGKGLEWLARIRSKSNNYATYYADSVKDRFTISRDDSRRMLYLLMNNVKFEDTAIYYCVRGKENNYGYAMDYWGQGTSVTVSS
VL: DIVMTQAAPSVPVTPGESVSISCRSSQSLLHSNGNTYLYWFLQRPGQSPQLLIYRMSNLASGVPDRFSGSGSGTAFTLRISRVEAEDVGVYYCMQHLEYPFTFGIGTKLELKR
